According to US20020048812A1, “Isolation and in vitro differentiation of conditionally immortalized murine olfactory receptor neurons” (priority 2000, published 2002):
“Also recorded” adds a separate entry of the source.

B1: NGF: 2.5 S nerve growth factor (Gibco BRL) (protein, UniProt P01139 122-241, looked up)
Beta-nerve growth factor: SSTHPVFHMGEFSVCDSVSVWVGDKTTATDIKGKEVTVLAEVNINNSVFRQYFFETKCRASNPVESGCRGIDSKHWNSYCTTTHTFVKALTTDEKQAAWRFIRIDTACVCVLSRKATRRG
modifications: Beta-nerve growth factor
B2: BDNF: brain-derived neurotrophic factor (Peprotech) (protein, UniProt P23560 129-247, looked up)
Neurotrophic factor BDNF: HSDPARRGELSVCDSISEWVTAADKKTAVDMSGGTVTVLEKVPVSKGQLKQYFYETKCNPMGYTKEGCRGIDKRHWNSQCRTTQSYVRALTMDSKKRIGWRFIRIDTSCVCTLTIKRGR
modifications: Neurotrophic factor BDNF
B3: NT-3: neurotrophin-3 (Peprotech) (protein, UniProt P20783 139-257, looked up)
Neurotrophin-3: YAEHKSHRGEYSVCDSESLWVTDKSSAIDIRGHQVTVLGEIKTGNSPVKQYFYETRCKEARPVKNGCRGIDDKHWNSQCKTSQTYVRALTSENNKLVGWRWIRIDTSCVCALSRKIGRT
modifications: Neurotrophin-3

Tests used:
[1] = test system: NST+ cells in the heterogeneous culture; experiment: Counting NST+ cells (anti-NST labeling) in heterogeneous olfactory cell cultures with growth factors; format: cell-based, mouse; conditions: for Normalized # of NST+ Cells: 100 ng.ml^−1; for Effect on the number of NST+ cells (in words): permissive conditions (33° C.)
Method: FIG. 2A. Interferon causes a significant, dose-dependent increase in the number of NST+ cells in the heterogeneous culture, with an EC50 of 0.4 U.ml^−1. Cells were incubated at 33° C. and were stained with anti-NST and rhodamine-coupled secondary antibodies seven days after plating. Cell counts were obtained from ten randomly selected areas in each experiment. Data were normalized to the mean number of NST+ cells in the absence of interferon and each point represents the mean ±S.E.M from three experiments.
FIG. 2B. EGF (•) and NGF (□) both have mitogenic effects in permissive conditions over and above the effect of interferon. NST+ cells were counted as described in (A) and were normalized to baseline levels in the presence of interferon (40 U.ml^−1). […] Except for the presence of interferon (40 U.ml^−1), all experimental conditions were as in A.
To determine the optimal conditions for cell survival, growth, differentiation and maturation, cells were cultured in permissive and non-permissive conditions in the presence of interferon, EGF, NGF, BDNF and NT-3. […] The effects of EGF, NGF, BDNF and NT-3 on cell maturation in non-permissive culture conditions were
To keep the amount of expressed TAg to the minimum required for immortalization (Noble et al., 1995), heterozygous offspring from homozygous male H-2K^b-tsA58 transgenic and C57B1 female mice (Charles River Laboratories, Wilmington Mass., and Jackson Laboratory, Bar Harbor, Me., respectively) were used to generate the conditionally immortal neuronal cell culture. Cells were isolated in a procedure modified from a previously established technique (Ronnett et al., 1991). Briefly, post-natal day 1-3 animals were decapitated and the heads were sectioned longitudinally. The olfactory epithelium and nasal septum were removed and placed in an Eppendorf tube containing 500 μl culture medium. The culture medium consisted of Minimum Essential Medium in which the L-valine has been replaced by D-valine (MDV). This was supplemented with 10% fetal bovine serum (FBS), 4 mM glutamine, kanamycin (100 μg.ml^−1), gentamicin (50 U.ml^−1) and amphotericin B (2.5 μg.ml^−1; all from Gibco BRL, Gaithersburg, Md.). The MDV medium was chosen because fibroblasts lack D-amino acid oxidase and the reduction of L-valine inhibits fibroblast survival and growth (Gilbert et al., 1986). Tissue was centrifuged at low speed for two minutes and then most of the medium was removed. The cell pellet was chopped briefly with a pair of fine-point scissors before being resuspended in supplemented cell culture medium. The resultant cell clumps and cell suspension were plated out onto 2- or 4-chamber glass slides (Nunc, Naperville, Ill.) or plastic dishes (Fisher Scientific, Pittsburgh, Pa.). To enhance ORN adhesion, all cell culture materials were pretreated with laminin (0.125 mg.ml^−1 in serum-free media, Collaborative Biomedical Products, Bedford, Mass.) for at least 12 hours, prior to plating. Cells were maintained in culture at 33° C. (the permissive temperature for the SV40 TAg) and, to stimulate transcription of the transgene, the culture medium was supplemented with murine γ-interferon (40 U.ml^−1, Genzyme, Cambridge, Mass.). Provisionally, in permissive conditions, the cell culture medium was supplemented with epidermal growth factor (EGF, 20 ng.ml^−1, Gibco BRL) and 2.5 S nerve growth factor (NGF, 10 ng.ml^−1, Gibco BRL) before thorough characterizations of their effects were made in later experiments.
To determine optimum conditions for cell survival, growth, differentiation or maturation, numerous combinations of culture conditions were tested. These included i) removal of the olfactory epithelium from newborn, 4-week-old, and sexually mature animals, ii) subjecting tissue to digestion by trypsin (Gibco BRL, 0.5 g.l^−1 for 60 minutes at 37° C.), iii) addition of growth factors to the culture medium and iv) the use of diverse culture media. […]

[2] = test system: olfactory marker protein (OMP); experiment: OMP expression by Western blot in cells in non-permissive conditions; format: cell-based, mouse; conditions: 37° C., heterogeneous cell cultures, 15 μg protein per lane
Method: FIG. 2C. Effects of EGF, NGF, BDNF and NT-3 on OMP expression as determined by Western blot. Cells were maintained in non-permissive conditions at 37° C. in the absence of growth factors (C) or in presence of EGF (E), NGF (N), BDNF (B) or NT-3 (3). Samples were isolated from the heterogeneous cell cultures and from olfactory tissue (T), and were separated on a SDS-polyacrylamide gel (15 μg protein per lane). OMP is a 19 kD protein and, in situ, is expressed only in mature olfactory receptor neurons. OMP was not detected in control cells (C), cultured in the absence of growth factors or in cells incubated in the presence of EGF.
assayed by Western blot detection of olfactory marker protein (OMP), a marker of mature olfactory receptor neurons (Margolis, 1988).
Cells were always maintained in permissive culture conditions except when attempts were made to obtain a differentiated phenotype through transgene inactivation. In this case, cells were incubated in non-permissive culture conditions, i.e. at 37° C. in γ-interferon-free media for seven days, before the effects of transgene inactivation were determined. The effects of EGF, NGF, BDNF and NT-3 in promoting cell maturation/differentiation were assessed and, based on those experiments, BDNF and NT-3 were routinely added to the culture medium for cells in non-permissive culture conditions. In both culture environments, the air was kept humidified and contained 5% CO2.
Cells were scraped into a cold isolation buffer containing 20 mM Na(N-tris[hydroxymethyl]methyl-2-aminoethanesulfonic acid) (Na TES), 10 mM mannitol and 1% Triton X-100 at pH 7.4. The isolation buffer was supplemented with phenylmethylsulfonyl fluoride (30 μg.ml^−1), leupeptin (2 μg.ml^−1), benzamidine (16 μg.ml^'1), pepstatin (2 μg.ml^−1), and lima bean trypsin inhibitor (50 μg.ml^−1) to prevent protease activity. After five freeze/thaw cycles, cell extracts were centrifuged at 2,000 g for 5 minutes to pellet nuclei and cell debris. […]

[3] = 33° C., in the presence of 40 U.ml^−1 interferon, normalized to that point

| Molecule | Normalized # of NST+ Cells [1, 3] | Effect on the number of NST+ cells (in words) [1] | OMP expression detected by Western blot (in words) [2] | Normalized # of NST+ Cells ([1]; 37° C.) |
| --- | --- | --- | --- | --- |
| B1 | 1.5 ± 0.2 | increased the number of NST+ cells | barely detectable |  |
| B2 | 1.3 ± 0.2 | no effect | significant expression of OMP could be observed; also recorded: to a lesser degree, was detected | 1.3 ± 0.2 |
| B3 | 0.8 ± 0.1 | no effect | significant expression of OMP could be observed; also recorded: greater from cells incubated with NT-3 than with BDNF; also recorded: most readily detected | 1.4 ± 0.1 |
